Results: patent publication US20200054764A1, “MEDICAL USE OF ANTI-C MET ANTIBODY-CYTOTOXIC DRUG CONJUGATE” (priority 2016, published 2020)

Legend:
[1] = test system: a variety of human tumor cell lines; conditions: background statement; cited from earlier work
[2] = molecular target: human c-Met on MKN45 cells (human) (UniProt P08581); experiment: cell-based or functional assay
[3] = molecular target: T1, human c-Met ECD his tag (Human c-Met ECD-His) recombinant protein (human, UniProt P08581 25-932); experiment: ELISA, plate coated with human c-Met-His at 2 ug/mL
T1 construct: extracellular domain; It was expressed in 293F cells; Natural c-Met is cleaved into alpha and beta subunits; also called human c-Met-His; not shown: C-terminal His tag
T1 sequence (P08581 25-932): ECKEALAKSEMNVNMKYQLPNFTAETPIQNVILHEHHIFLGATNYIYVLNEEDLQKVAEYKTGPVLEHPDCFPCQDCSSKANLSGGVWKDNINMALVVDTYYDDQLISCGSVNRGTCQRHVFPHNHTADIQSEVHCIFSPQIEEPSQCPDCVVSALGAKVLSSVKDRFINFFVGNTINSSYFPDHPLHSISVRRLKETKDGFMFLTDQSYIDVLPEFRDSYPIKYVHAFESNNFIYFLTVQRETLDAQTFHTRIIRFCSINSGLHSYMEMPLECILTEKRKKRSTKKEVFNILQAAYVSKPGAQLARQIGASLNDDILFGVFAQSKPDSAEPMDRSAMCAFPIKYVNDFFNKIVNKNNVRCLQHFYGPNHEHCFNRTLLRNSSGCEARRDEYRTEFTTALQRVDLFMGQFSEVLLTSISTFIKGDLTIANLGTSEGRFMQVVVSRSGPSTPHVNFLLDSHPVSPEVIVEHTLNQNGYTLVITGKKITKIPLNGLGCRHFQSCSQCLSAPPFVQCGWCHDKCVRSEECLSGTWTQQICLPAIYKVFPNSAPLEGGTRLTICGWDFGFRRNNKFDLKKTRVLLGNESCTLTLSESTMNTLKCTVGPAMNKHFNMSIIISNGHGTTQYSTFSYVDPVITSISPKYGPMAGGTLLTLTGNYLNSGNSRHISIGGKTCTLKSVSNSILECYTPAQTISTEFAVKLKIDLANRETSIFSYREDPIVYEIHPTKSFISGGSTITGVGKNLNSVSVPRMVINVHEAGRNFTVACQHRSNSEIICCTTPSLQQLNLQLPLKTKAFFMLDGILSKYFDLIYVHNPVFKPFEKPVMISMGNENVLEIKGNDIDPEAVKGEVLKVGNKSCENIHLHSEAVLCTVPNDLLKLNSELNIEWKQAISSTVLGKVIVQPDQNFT

human c-Met-His = molecular target: T2, human c-Met-His (Homo sapiens, UniProt P08581); experiment: ELISA binding of c-Met antibody to c-Met antigen; conditions: hybridoma clones, ELISA, OD450
T2 construct: His tag (6xHis) (C); made in house; host or cells: 293F cells (Invitrogen, Cat # R790-07); vector pEE6.4; c-Met gene template origene RC217003
T2 sequence (P08581 with tags, fused parts or gaps limits assumed): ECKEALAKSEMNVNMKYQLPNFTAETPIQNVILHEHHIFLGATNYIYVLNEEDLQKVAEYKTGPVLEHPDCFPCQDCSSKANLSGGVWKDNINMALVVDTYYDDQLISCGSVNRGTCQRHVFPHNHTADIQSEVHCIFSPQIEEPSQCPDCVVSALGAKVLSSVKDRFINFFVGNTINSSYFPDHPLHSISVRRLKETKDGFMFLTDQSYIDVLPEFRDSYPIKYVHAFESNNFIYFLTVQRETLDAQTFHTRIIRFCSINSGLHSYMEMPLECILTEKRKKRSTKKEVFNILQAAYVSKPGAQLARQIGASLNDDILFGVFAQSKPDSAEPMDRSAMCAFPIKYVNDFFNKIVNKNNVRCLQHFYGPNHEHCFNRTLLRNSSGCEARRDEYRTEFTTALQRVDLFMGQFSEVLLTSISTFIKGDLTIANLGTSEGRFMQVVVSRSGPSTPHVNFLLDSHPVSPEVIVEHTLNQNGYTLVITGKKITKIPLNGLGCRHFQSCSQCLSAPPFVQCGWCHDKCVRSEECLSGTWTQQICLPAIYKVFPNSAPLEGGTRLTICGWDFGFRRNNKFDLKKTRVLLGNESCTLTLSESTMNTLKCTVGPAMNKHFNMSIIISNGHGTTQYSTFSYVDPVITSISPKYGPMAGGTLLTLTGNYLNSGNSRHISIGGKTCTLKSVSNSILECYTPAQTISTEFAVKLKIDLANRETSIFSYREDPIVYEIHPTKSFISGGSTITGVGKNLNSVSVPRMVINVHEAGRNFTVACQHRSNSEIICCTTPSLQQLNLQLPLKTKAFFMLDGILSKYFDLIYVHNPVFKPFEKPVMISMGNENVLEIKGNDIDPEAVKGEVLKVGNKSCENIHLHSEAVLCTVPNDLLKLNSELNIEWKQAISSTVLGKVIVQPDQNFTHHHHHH
Method: This experiment uses enzyme linked immunosorbent assay to detect affinity of c-Met antibody (including supermatant of hybridonma or recombinant expressed monoclonal antibodies) to c-Met antigen in vitro.
Experimental procedures: Coating buffer (PBS; Hyclone, Cat No.: SH30256.01B) was used to dilute antigen (human c-Met-His, example 1) to 2 μg/mL, which was added to a 96-well microplate at 100 μL/well (Costar 9018, Cat No.:03113024) and incubated overnight at 4° C. […] The plate was read with plate reader at 450 nm.
Murine anti-human c-Met monoclonal cell lines were obtained by immunizing mice, fusion of spleen cells, and screening of hybridomas. […] After the first booster immunization, mice serum was collected during 7 to 10 days after each booster immunization, and the titer was detected by ELISA (Methods were described in Example 2).
After immunization, mice with a serum titer higher than 1:10^5 were selected for cell fusion. Mouse B-cells and myeloma cells (SP2/0, ATCC number:CRL-1581™) were prepared respectively in aseptic conditions and counted. […] The next day, positive clones were detected by ELISA (see Methods in Example 2).

Chain of human c-Met on MKN45 cells (human) (P08581 25-1390): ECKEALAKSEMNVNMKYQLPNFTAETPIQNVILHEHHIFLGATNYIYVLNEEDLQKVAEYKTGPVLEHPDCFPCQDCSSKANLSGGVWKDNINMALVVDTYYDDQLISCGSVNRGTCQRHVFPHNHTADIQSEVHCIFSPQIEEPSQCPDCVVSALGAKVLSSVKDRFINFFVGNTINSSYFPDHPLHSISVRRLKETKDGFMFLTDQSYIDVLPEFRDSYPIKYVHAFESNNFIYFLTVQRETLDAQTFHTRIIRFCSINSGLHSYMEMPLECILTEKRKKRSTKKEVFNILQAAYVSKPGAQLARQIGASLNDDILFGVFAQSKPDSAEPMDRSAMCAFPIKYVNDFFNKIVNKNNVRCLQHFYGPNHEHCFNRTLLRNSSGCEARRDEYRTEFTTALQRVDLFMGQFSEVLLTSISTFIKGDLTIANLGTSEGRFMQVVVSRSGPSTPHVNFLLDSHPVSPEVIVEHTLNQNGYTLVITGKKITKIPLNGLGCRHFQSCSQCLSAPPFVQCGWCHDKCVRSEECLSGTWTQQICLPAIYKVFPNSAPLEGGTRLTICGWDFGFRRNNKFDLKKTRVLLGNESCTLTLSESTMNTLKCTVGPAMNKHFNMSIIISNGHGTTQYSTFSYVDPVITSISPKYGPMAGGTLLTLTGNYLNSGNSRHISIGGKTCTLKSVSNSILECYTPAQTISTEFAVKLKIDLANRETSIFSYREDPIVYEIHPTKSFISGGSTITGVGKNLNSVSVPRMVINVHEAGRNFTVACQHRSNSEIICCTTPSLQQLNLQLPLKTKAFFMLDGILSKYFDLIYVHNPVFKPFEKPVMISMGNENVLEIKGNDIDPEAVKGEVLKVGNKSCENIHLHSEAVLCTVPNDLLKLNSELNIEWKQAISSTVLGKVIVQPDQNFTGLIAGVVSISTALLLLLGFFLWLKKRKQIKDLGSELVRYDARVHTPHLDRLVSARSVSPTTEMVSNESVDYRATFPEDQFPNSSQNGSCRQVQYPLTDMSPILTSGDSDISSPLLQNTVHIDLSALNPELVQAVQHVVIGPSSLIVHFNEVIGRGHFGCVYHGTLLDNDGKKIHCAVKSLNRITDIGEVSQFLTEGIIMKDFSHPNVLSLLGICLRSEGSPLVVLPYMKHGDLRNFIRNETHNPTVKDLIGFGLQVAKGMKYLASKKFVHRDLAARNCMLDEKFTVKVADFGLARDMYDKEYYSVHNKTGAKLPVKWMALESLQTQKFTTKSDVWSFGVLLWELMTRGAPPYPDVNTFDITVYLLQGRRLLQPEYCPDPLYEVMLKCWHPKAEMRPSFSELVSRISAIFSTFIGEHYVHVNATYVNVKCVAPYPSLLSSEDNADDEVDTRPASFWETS

For `CC[C@H](C)C([C@@H](CC(=O)N1CCC[C@H]1[C@H](OC)[C@@H](C)C(=O)N[C@H](C)[C@@H](O)c1ccccc1)OC)N(C)C(=O)[C@@H](NC(=O)[C@@H](NC)C(C)C)C(C)C` (some centres unmarked) [MMAE, Monomethyl auristatin E], the “inhibitory activities against a variety of human tumor cell lines” value [1] is listed as “less than one nanomolar”.

For hIgG (control) (antibody), the endocytosis % (0 h) [2] was 0%, the endocytosis % (0.5 h) [2] was -0.9% and the endocytosis % (1 h) [2] was -4.4%. For the same molecule, the endocytosis % (2 h) [2] was -4.9% and the endocytosis % (4 h) [2] was 3.6%.

B1: Ab-11 humanized antibody (antibody, human IgG2, kappa, V domains shown)
VH: QVQLVESGGGVVQPGRSLRLSCAASGFTLPNYGVHWVRQAPGKGLEWLAVIWSGGSTNYAAAFVSRLTISKDNSKNTVYLQMNSLRAEDTAVYYCARNHDNPYNYAMDYWGQGTTVTVSS
VL: DIVLTQSPDSLAVSLGERATINCRANKSVSTSTYNYLHWYQQKPGQPPKLLIYLASNLASGVPDRFSGSGSGTDFTLTISSLQAEDVAVYYCQHSRDLPPTFGQGTKLEIKR
notes: Full-length humanized antibody
For B1, the EC50 [3] was 200 pM.

B2: Ab-5 (antibody, V domains shown)
VH: QVQLKQSGPGLVQPSQSLSITCTVSGFSLPNYGVHWVRQSPGKGLEWLGVIWSGGSTNYAAAFVSRLRISKDNSKSQVFFEMNSLQADDTAVYYCARNHDNPYNYAMDYWGQGTTVTVSS
VL: DIVLTQSPGSLAVYLGQRATISCRANKSVSTSTYNYLHWYQQKPGQPPKLLIYLASNLASGVPARFSGSGSGTDFTLNIHPLEEEDAATYYCQHSRDLPPTFGAGTKLELKR
With B2 the “Detection Results (OD450)” value (human c-Met-His) was 1.64.
